Measurements as given in publication PMC7782405 (Molecular Imaging and Biology, 2020).

Assays:
[1] = tested on: U-87MG cells; assay: Cell internalization assay; assay type: cell-based, human; details: for specific surface-bound fraction: all time points
Procedure: For cell internalization, U-87MG cells were seeded at a density of 10^6 cells per well in 6-well plates and incubated overnight with medium (Dulbecco modified Eagle medium with GlutaMAX containing 10 % fetal bovine serum, 1 % 10,000 U ml^−1 penicillin and 10,000 U ml^−1 streptomycin, 1 % sodium-pyruvate 100 mM). After 24 h, the medium was removed and the cells were washed with PBS. Approximately 2.5 pmol of [^64Cu]Cu-8 and [^64Cu]Cu-9 was added to the cells (in triplicates) to give a final volume of 1.5 ml PBS in each well followed by incubation for 1 h at 37 °C, 5 % CO2. […] At each time point, the internalization was stopped by removing the medium and washing the cells twice with ice-cold PBS. To remove the receptor-bound radioligand, an acid wash was carried out twice with a 0.1 M glycine buffer pH 2.8 for 5 min on ice. Finally, cells were solubilized with 1 N NaOH. Radioactivity of cell fractions (supernatant, receptor-bound, and internalized) was measured by a Perkin Elmer gamma counter. Experiments were performed twice in triplicate.

[2] = in vivo; design: species or system mice; details: female, athymic Balb/c nude, mouse, in vivo, iv, total radioactivity
Procedure: (§1) All animal experiments complied with the current laws of the Federal Republic of Germany and were conducted according to German Animal welfare guidelines. Normal female athymic Balb/c nude mice (17–20 g, 4–6 weeks old) were obtained from Janvier SAS (St. Berthevin Cedex, France). Mice were provided with food and water ad libitum. U-87MG tumors were induced on the right shoulder by sub-cutaneous injection of 5 × 10^6 cells in a 100 μl cell suspension of a 1:1 v/v mixture of media with reconstituted basement membrane (GFR BD Matrigel™, Corning BV, Amsterdam, Holland). For each compound, a total of three animals were injected with [^64Cu]Cu-8 and [^64Cu]Cu-9 (~ 500 pmol, 7–11 MBq) in 100 μl sterile filtered phosphate-buffered saline via a tail vein. At 1 h p.i., animals were sacrificed by isoflurane anesthesia. Organs of interest were dissected, weighed, and assayed for radioactivity in a gamma counter. The percent injected activity per gram (%IA g^−1) for each tissue was calculated by comparison of the tissue counts to a standard sample prepared from the injectate.

[3] = tested on: mice bearing U-87MG xenografts; assay: in vivo; details: for reduction of uptake in U-87MG xenografts by co-injection of c(RGDfK) 7: 1 h p.i.
Procedure: as §1

[4] = in vivo; design: species or system mice; details: female, athymic Balb/c nude, mouse, iv, total radioactivity, Tumor uptake (PET)
Procedure: (§2) All animal experiments complied with the current laws of the Federal Republic of Germany and were conducted according to German Animal welfare guidelines. Normal female athymic Balb/c nude mice (17–20 g, 4–6 weeks old) were obtained from Janvier SAS (St. Berthevin Cedex, France). Mice were provided with food and water ad libitum. U-87MG tumors were induced on the right shoulder by sub-cutaneous injection of 5 × 10^6 cells in a 100 μl cell suspension of a 1:1 v/v mixture of media with reconstituted basement membrane (GFR BD Matrigel™, Corning BV, Amsterdam, Holland). Static and dynamic PET imaging experiments were conducted on a microPET Focus 120 scanner (Concorde Microsystems). For dynamic PET imaging studies, approximately 5 min prior to recording PET images, mice (n = 3) were anesthetized by inhalation of 2–3 % isoflurane/oxygen gas mixture, fitted with an intravenous catheter and placed on the scanner bed in the prone position. Anesthesia was maintained using 1–2 % isoflurane. For all experiments, animals were injected with 100 μl sterile filtered phosphate-buffered saline formulations pH 7.4 of [^64Cu]Cu-8 and [^64Cu]Cu-9 (~ 500 pmol, 7–11 MBq). Dynamic scans were recorded from 0 to 1 h post radiotracer administration. List-mode data were acquired using a γ-ray energy window of 350–650 keV and a coincidence timing window of 6 ns. For the 24 h p.i. time point, mice were injected 24 h prior to image acquisition and placed in the cages. Five to ten minutes prior to static PET imaging, mice were anesthetized with isoflurane (2–4 % in air) and positioned in the scanner. Animals of the PET imaging studies were included in the ex vivo biodistribution studies (vide infra). Reconstruction was performed using unweighted OSEM2D. Image analysis was performed using AMIDE. Image counts per second per voxel (cps/voxel) were calibrated to activity concentrations (Bq ml^−1) by measuring a 3.5-cm cylinder phantom filled with a known concentration of radioactivity.

[5] = tested on: mice bearing U-87MG xenografts; assay: in vivo; details: mouse
Procedure: as §2

[6] = female, athymic Balb/c nude, mouse, in vivo, iv, 1 h

Structure (SMILES) | receptor-mediated (αvß3-specific) internalization ([1]; 4 h) [%] | receptor-mediated (αvß3-specific) internalization ([1]; after 30 min) [%] | specific surface-bound fraction [1] [%] | tissue to tissue ratio at 1 h ([2]; Tumor-to-kidney ratio) | tissue to tissue ratio at 1 h ([2]; Tumor-to-liver ratio) | tissue to tissue ratio at 1 h ([2]; Tumor-to-muscle ratio) | reduction of uptake in U-87MG xenografts by co-injection of c(RGDfK) 7 [3] [%] | Tumor-to-liver ratio [3, 6] | Tumor-to-kidney ratio ([3]; mouse, in vivo) | fold higher tumor uptake compared with the monomer [^64Cu]Cu-8 ([3]; mouse, in vivo) | tissue uptake per volume at 1 h ([4]; 5 mg/kg) [%ID/mL] | tissue uptake per volume at 1 h [4] [%ID/mL] | fold higher tumor uptake compared with the monomeric counterpart (PET images) [5] | liver uptake, normal vs blocking groups (PET) [5] | time to maximum tumor accumulation (TAC) [5] [min] | tissue to tissue ratio at 1 h ([2]; Tumor-to-blood ratio) | Tumor-to-blood ratio [3, 6] | Tumor-to-liver ratio ([3]; mouse, in vivo)
N=C(N)NCCC[C@@H]1NC(=O)[C@H](CCCCNC(=O)CCCCn2ccnc2CN2CCN(Cc3nccn3CCCCC(=O)NCCCC[C@@H]3NC(=O)[C@@H](Cc4ccccc4)NC(=O)[C@H](CC(=O)O)NC(=O)CNC(=O)[C@H](CCCNC(=N)N)NC3=O)CCN(Cc3nccn3CCCCC(=O)NCCCC[C@@H]3NC(=O)[C@@H](Cc4ccccc4)NC(=O)[C@H](CC(=O)O)NC(=O)CNC(=O)[C@H](CCCNC(=N)N)NC3=O)CC2)NC(=O)[C@@H](Cc2ccccc2)NC(=O)[C@H](CC(=O)O)NC(=O)CNC1=O [[^64Cu]Cu-9, metal not drawn] | 8.7 ± 0.6 | 0.7 ± 0.2 | ≤ 0.1 | 0.73 ± 0.11 | 1.03 ± 0.26 | 14.1 ± 3.83 | 60 | 0.99 | 0.73 | ~ 2.5 fold | 2.18 ± 0.66 | 4.42 ± 1.1 | ~ 2 fold | No significant differences | 5 to 10 | – | – | –
Cn1ccnc1CN1CCN(CC(=O)NCCCC[C@@H]2NC(=O)[C@@H](Cc3ccccc3)NC(=O)[C@H](CC(=O)O)NC(=O)CNC(=O)[C@H](CCCNC(=N)N)NC2=O)CCN(Cc2nccn2C)CC1 [[^64Cu]Cu-8, metal not drawn] | 1.4 ± 0.1 | 0.2 ± 0.1 | ≤ 0.1 | 0.86 ± 0.04 | 0.83 ± 0.1 | 10.5 ± 4.79 | 89 | – | 0.86 | – | 0.91 ± 0.39 | 2.61 ± 0.65 | – | No significant differences | 5 to 10 | 15 ± 3.05 | 14.37 | 0.84
